Experimental data as given in US20240158479A1 (RUTGERS THE STATE UNIVERSITY OF NEW JERSEY, published 2024).
“And” between values parts separate entries of the source, which are not always exact repeats. Equal values may be shown once. Read-outs that look alike come from different tables or passages of the source.

Legend:
Assay in all cases: cell-based or functional assay
[1] = biological target: Wuhan_Hu-1 spike (B.1_614D) on pseudovirus (SARS-CoV-2, UniProt P0DTC2 14-1273)
[2] = biological target: Wuhan_Hu-1_D614G spike (B.1) on pseudovirus (SARS-CoV-2, UniProt P0DTC2 14-1273)
[3] = biological target: Omicron BA.1 spike on pseudovirus (SARS-CoV-2)
[4] = biological target: Gamma spike (P.1) on pseudovirus (SARS-CoV-2)
[5] = biological target: Omicron BA.2 spike on pseudovirus (SARS-CoV-2)
[6] = biological target: Alpha spike (B.1.1.7) on pseudovirus (SARS-CoV-2)
[7] = biological target: Wuhan_Hu-1_D614G spike (B.1) on pseudovirus (SARS-CoV-2, UniProt P0DTC2 14-1273); remark: listed apart in the source
[8] = biological target: Omicron BA.4/5 spike on pseudovirus (SARS-CoV-2)
[9] = biological target: Omicron BA.2.75 spike on pseudovirus (SARS-CoV-2)
[10] = biological target: Delta spike (B.1.617.2) on pseudovirus (SARS-CoV-2)
[11] = biological target: Omicron BA.4.6 spike on pseudovirus (SARS-CoV-2)
[12] = biological target: Omicron BQ.1.1 spike on pseudovirus (SARS-CoV-2)
[13] = biological target: Beta spike (B.1.351) on pseudovirus (SARS-CoV-2)
[14] = biological target: Wuhan_Hu-1 spike (B.1_614D) on pseudovirus (SARS-CoV-2, UniProt P0DTC2 14-1273); remark: listed apart in the source
[15] = biological target: Omicron BA.2.12.1 spike on pseudovirus (SARS-CoV-2)
[16] = biological target: Omicron BA.1 spike on pseudovirus (SARS-CoV-2); remark: listed apart in the source
[17] = biological target: Omicron BA.1 spike on pseudovirus (SARS-CoV-2); remark: listed apart in the source
[18] = biological target: Omicron BA.2 spike on pseudovirus (SARS-CoV-2); remark: listed apart in the source
[19] = biological target: Omicron BA.4/5 spike on pseudovirus (SARS-CoV-2); remark: listed apart in the source
[20] = biological target: Omicron BA.2.75 spike on pseudovirus (SARS-CoV-2); remark: listed apart in the source
[21] = biological target: Omicron BA.4.6 spike on pseudovirus (SARS-CoV-2); remark: listed apart in the source
[22] = biological target: Omicron BA.2.12.1 spike on pseudovirus (SARS-CoV-2); remark: listed apart in the source

B1: Imdevimab (antibody, V domains shown)
VH: QVQLVESGGGVVQPGRSLRLSCAASGFTFSNYAMYWVRQAPGKGLEWVAVISYDGSNKYYADSVKGRFTISRDNSKNTLYLQMNSLRTEDTAVYYCASGSDYGDYLLVYWGQGTLVTVSS
VL: QSALTQPASVSGSPGQSITISCTGTSSDVGGYNYVSWYQQHPGKAPKLMIYDVSKRPSGVSNRFSGSKSGNTASLTISGLQSEDEADYYCNSLTSISTWVFGGGTKLTVLG
With B1 the “IC50, pseudovirus neutralization” value [1] was 4.8 ng/mL and the “IC50, pseudovirus neutralization” value [2] was 2.5 ng/mL.

B2: Tixagevimab (antibody, V domains shown)
VH: QMQLVQSGPEVKKPGTSVKVSCKASGFTFMSSAVQWVRQARGQRLEWIGWIVIGSGNTNYAQKFQERVTITRDMSTSTAYMELSSLRSEDTAVYYCAAPYCSSISCNDGFDIWGQGTMVTVSS
VL: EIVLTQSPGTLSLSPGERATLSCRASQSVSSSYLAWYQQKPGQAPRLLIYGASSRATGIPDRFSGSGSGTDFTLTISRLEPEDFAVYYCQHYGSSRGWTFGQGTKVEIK
In the case of B2, the “IC50, pseudovirus neutralization” value [1] is reported as 3.2 ng/mL and the “IC50, pseudovirus neutralization” value [2] is reported as 1.2 ng/mL.

B3: Etesevimab (antibody, V domains shown)
VH: EVQLVESGGGLVQPGGSLRLSCAASGFTVSSNYMSWVRQAPGKGLEWVSVIYSGGSTFYADSVKGRFTISRDNSMNTLFLQMNSLRAEDTAVYYCARVLPMYGDYLDYWGQGTLVTVSS
VL: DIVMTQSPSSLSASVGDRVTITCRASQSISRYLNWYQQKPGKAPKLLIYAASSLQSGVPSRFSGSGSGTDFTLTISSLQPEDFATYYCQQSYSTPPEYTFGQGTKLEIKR
B3 was tested, and the “IC50, pseudovirus neutralization” value [1] was 12 ng/mL and the “IC50, pseudovirus neutralization” value [2] was 6.6 ng/mL.

B4: Bebtelovimab (antibody, V domains shown)
VH: QITLKESGPTLVKPTQTLTLTCTFSGFSLSISGVGVGWLRQPPGKALEWLALIYWDDDKRYSPSLKSRLTISKDTSKNQVVLKMTNIDPVDTATYYCAHHSISTIFDHWGQGTLVTVSS
VL: QSALTQPASVSGSPGQSITISCTATSSDVGDYNYVSWYQQHPGKAPKLMIFEVSDRPSGISNRFSGSKSGNTASLTISGLQAEDEADYYCSSYTTSSAVFGGGTKLTVLG
For B4, the “IC50, pseudovirus neutralization” value [1] was 2.8 ng/mL and the “IC50, pseudovirus neutralization” value [2] was 1.9 ng/mL.

B5: Bamlanivimab (antibody, V domains shown)
VH: QVQLVQSGAEVKKPGSSVKVSCKASGGTFSNYAISWVRQAPGQGLEWMGRIIPILGIANYAQKFQGRVTITADKSTSTAYMELSSLRSEDTAVYYCARGYYEARHYYYYYAMDVWGQGTAVTVSS
VL: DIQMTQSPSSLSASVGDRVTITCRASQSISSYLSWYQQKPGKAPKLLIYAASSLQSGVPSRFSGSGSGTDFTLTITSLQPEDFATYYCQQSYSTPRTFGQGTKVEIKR
With B5 the “IC50, pseudovirus neutralization” value [1] was 5.3 ng/mL and the “IC50, pseudovirus neutralization” value [2] was 2 ng/mL.

B6: Casirivimab (antibody, V domains shown)
VH: QVQLVESGGGLVKPGGSLRLSCAASGFTFSDYYMSWIRQAPGKGLEWVSYITYSGSTIYYADSVKGRFTISRDNAKSSLYLQMNSLRAEDTAVYYCARDRGTTMVPFDYWGQGTLVTVSS
VL: DIQMTQSPSSLSASVGDRVTITCQASQDITNYLNWYQQKPGKAPKLLIYAASNLETGVPSRFSGSGSGTDFTFTISGLQPEDIATYYCQQYDNLPLTFGGGTKVEIK
For B6, the “IC50, pseudovirus neutralization” value [1] was 6.2 ng/mL and the “IC50, pseudovirus neutralization” value [2] was 2.3 ng/mL.

B7: ACOVIMAB (antibody, V domains shown)
VH: EVQLVESGPEVKKPGTSVKVSCKASGFTFTTTSSVQWVRQARGQRLEWIGWIVVGSGETEYAQNFQDRVTITSDMSTTTAYMEMSSLRSEDSAFYYCAAPYCSGGTCMDGFDLWGQGTLVSVSS
VL: EIVLTQSPGTLSLSPGERATLSCRASQSVRSNYLGWYQQKPGQAPRLLIYAASSRATGIPDRFSGSGSGTDFTLTISRLEPEDFAVYYCQQYDRSPWTFGQGTKVESKR
With B7 the “IC50, pseudovirus neutralization” value [3] was 1.3 ng/mL, the “IC50, pseudovirus neutralization” value [4] was 2.9 ng/mL and the “IC50, pseudovirus neutralization” value [5] was 2.9 ng/mL. The “IC50, pseudovirus neutralization” value [6] was 5.2 ng/mL, the “IC50, pseudovirus neutralization” value [7] was 5.9 ng/mL and the “IC50, pseudovirus neutralization” value [8] was 0.22 µg/mL. The “IC50, pseudovirus neutralization” value [9] was 3.7 ng/mL, the “IC50, pseudovirus neutralization” value [10] was 5.1 ng/mL and the “IC50, pseudovirus neutralization” value [11] was 0.22 µg/mL. The “IC50, pseudovirus neutralization” value [12] was 0.29 µg/mL, the “IC50, pseudovirus neutralization” value [13] was 2 ng/mL and the “IC50, pseudovirus neutralization” value [14] was 9 ng/mL. For the same binder, the “IC50, pseudovirus neutralization” value [15] was 3.7 ng/mL, the “IC50 vs BA1” value [16] was 0.9 ng/ml and 60 pM and the “IC50, pseudovirus neutralization” value [17] was 1 to 3 ng/mL. The “IC50, pseudovirus neutralization” value [18] was 1 to 3 ng/mL, the “IC50, pseudovirus neutralization” value [19] was 150 ng/mL and 280 ng/mL and the “IC50, pseudovirus neutralization” value [20] was 1 to 3 ng/mL. For the same binder, the “IC50, pseudovirus neutralization” value [21] was 150 ng/mL and the “IC50, pseudovirus neutralization” value [22] was 1 to 3 ng/mL.
